According to the supplement of paper PMC9170038:

These sequences were tested on K4 kissing-loop RNA reporter (assay: apparent KD of K4 kissing-loop reporter; higher = weaker reporter binding). Conditions: Eterna round: R107; input ligand: none.
Method: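 RNA-MaP round R107: designed RNA switches with theophylline, tryptophan, arginine or FMN aptamers are transcribed on-chip within common flanks. They are titrated with a labelled K4 kissing-loop RNA reporter in RNA-MaP buffer (100 mM Tris pH 7.5, 80 mM KCl, 4 mM MgCl2), without ligand or with the indicated ligand. Median apparent KD per design.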
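Further: bound reporter read as fluorescence of individual clusters on recovered sequencing chips by microscopy, with normalized cluster intensities fitted with a binding model.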

Row | Sequence | apparent KD of K4 kissing-loop reporter
1 | UGGAGUUGACGAAAAGUCAACUCCCGAGAAGGAGCGGACGAAAGUCCAGGUAGGUCGCUCGCUACCAGUGAUGUUGGUACUGAAA | 126 nM
2 | AACGGCCAGUCGGCCGCCACUCGAUGCAGUGAUGUUGCUAACUUUCUAAAAGAGUGAUGUUCAUGGAGGACCGGGACUAGUGUAA [#30 K4 Tryptophan B Exclusion] | 291 nM
3 | UAAUAUAAUCUGUCGUUUACAAUAUUUAGUCAGGAUAUCGUAUAUUCGAGAAGGGACACUAUCUAGUGAUGUUAGAUAUUUCGUU [JR_ExcFMNA_Sub015] | 59.6 nM
4 | GCUCGUCAUGUCAGCGGUGGUACUGUCGAUACCAGUGCCGUAAGGCGCCCUUGGCAGCGAUGCGCUGGAGUGAUGUUCCAGCGUU [#2 Exclusion - Theophylline A Attempt #32 (HarryS)] | 116 nM
5 | UGUGUUGUUGUGAUGUUUGGUGUUGCAGGGCAGGAUAUCGUAGAGGCGAGAAGGGCUUUUGUGCGGUAUGAGUGAUGUUUGUAGG [rrcgsmullin] | 270 nM
6 | ACACUAUCGUCAUAGACGGUAGUGAACACACAGGAUAUGAGUGAUGUUAGAAGGGUGUAAGACUGUAUCGAAUAGAUACAGUCAA [FmnA 7 #K4BetweenAptamer #OpenEnded] | 204 nM
7 | AAACGUUGGUCUGAUACCAGCUGAUCGGAAACGAUCUUGCUGGAGUGAUGUUCCAGGAAAAGCCCUUGGCAGCAGACCGACGAAA [MAT - Same State Theophlline B - Mod of Eli - D25] | 1510 nM
8 | CAACCCUGCUUUUUCGAGUUUUAGGGAUGACGAGGACCGGUACGGCCGCCACUCGACUACACUGUUCAGUGAUGUUGAACGGCGG [Teveza] | 116 nM
9 | UAUGAAUGUGGAGGAUAUUGAUUGAAUCUUGGUCUGGAGUGAUGUUCCGGGAAGCCUUGGAUUCAUCGAGAAGGCCAUGGAUAGU [#03 K4 FMN B Same State] | 118 nM
10 | GUUCGGAUGCGGGAUACCAGCGUACCGAGCAAGCUUCGGGUAGUGAUGUUAUCUGAAUUACGCCCUUGGCAGCCCGCAUCCGGGC [clock_plus] | 285 nM
11 | AGUACAAUGGCGGCCGCCACUCAACAGCAGAUCAAAGAUCUGCUUCACUCAGUGAUGUUGAGUGAGAGGACCGGGCCUUUGUACA [Omei KL Tryp B SS B v4] | 783 nM
12 | UGACAUUGCUCAGAUACCAGACAAGAGGAUCACCCUUGUGCCAACGUACAAAUAAUAAAUGUCCCUUGGCAGCUGAGCAAUGUCU [TheoBX 15] | 58.2 nM
13 | GUCCAACCUGGAGGAUAUCUGCUGUCCAGUGAUGUUGGACACUUUAGUAAAGGCCGGGUAGCCCGCAGAGAAGGCCGGAGUUGCC [Arceer] | 375 nM
14 | UAGUAGCUCUCGGCCGCCACUCCUCAGUGAUGUUGAGAUAUUAAGAGCCAAUUGGCUCAUAUAAAGAGGACCGGGAGAGCUACAU [AK4.2 SS Tryptophan B] | 365 nM
15 | UGAUAGGACAGAAGGAGCGGCAGUGAUGUUGCCAAAAGGGUAAGGUGUCAAAAGACACCCUGCCAGGUAGGUCGCUGUCCUAUCU | 162 nM
16 | GGGAGUAGUGCGGCCGCCACUGAGAAAGAAGAAGAAUAUAGUGAUGUUAUGUAGGAAAGGAAGAACAGGACCGGGCAUUAGAUUU [SSTRyptB.G] | 477 nM
17 | UGAUAGGACAGAAGGAGCGAGGAGUGAUGUUCCUCAAAAGGUCUAGCAAAGCUAGACCCUCCUCAGGUAGGUCGCUGUCCUAUCU [ArgBX 1 #Palindromic #SwitchBubble #StaticStem] | 167 nM
18 | GCCGUAGAUGGAAGGAGCGUGUCAAAGUGAUGUUUUGAUUAACUCCCUAAGGGAUAGAUGACACAGGUAGGUCGCCAUCUACGGC | 74.3 nM
19 | GGUUUAUAGGAGGAUACCAGUACGGAUAAAGUACGUUAAUAGUAGAGUGAUGUUCUAAAGUACCCUUGGCAGCUUAGAUUAAGUU [ExTheophylB.J] | 106 nM
20 | AUUUAGACGAGUGAUGUUCGUGUUAUUACAGAGGAUAUGCGUAAUUGCAGAAGGCUGUAUUUAUAUAUGUUAUGUGGUUUUAAAA [whbob_Ex_FMNA__2th185] | 77.6 nM
21 | AAACAUUGGUCUGAUACCAGCUGAUCGGAAACGAUCAUGCUGGAGUGAUGUUCCAGGAAAAGCCCUUGGCAGCAGACCGAUGAAA [MAT - Same State Theophlline B - Mod of Eli - D28] | 75.6 nM

Same assay, conditions: Eterna round: R107; input ligand: theophylline 20 uM

Row | Sequence | apparent KD of K4 kissing-loop reporter
22 | AGUGCACUGUCAGGAUAUAUACAGUGAUGUUGUGUAUGUCAGCAAGUCAAAGACUUGCUCUUCUGUGUAGAAGGGACUGUGUACA [Omei KL FMN B Exc A v4] | 117 nM
23 | AAGUCUCGUUAAUUCGAGGUUACGAUCGAUACCAGUAGCGAGAGGUACCCUUGGCAGCGAAGUGAGUGAUGUUCAUGAAAGAAGA [KL-XTheoA12] | 131 nM
24 | AGUGAUGUAGUGUGUUGUUUGUGAAGUGAUCGAGGACCGGUACGGCCGCCACUCGAGUGAUGAGUGAGUGAUGUUUGUUUAGUGG [#18 K4 Tryptophan A Same State] | 412 nM
25 | CGCGCCCAGCCGGAUACCAGUGACCCGCUGGGAACCGCGGGCCCAGAGUGAUGUUCGGGACACCCUUGGCAGCCGCCUGGGCGGC [#2 Same State - Theophylline B Attempt #9 (HarryS)] | 717 nM
26 | UAAUCCUAGUGAUAAUUAUCAAGUGGUGGGCGAGGACCGGUACGGCCGCCACUCGAAUAUGCAGUGAUGUUGUAAUCCGGAUAAU [Exclusion - Tryptophan A (Freestyle 7)] | 715 nM
